Numbered stars: 1 amine (or outer) side, 2 acyl side, 3 side chain; on linkers, the order of the positions; unused ones are H or OH. Bridge positions count the residues as written; N and C are the ends. Side chains are listed from the residue outwards. Ends that are not written are not given here. * marks the point of attachment. C20 diacid = O=C(O)CCCCCCCCCCCCCCCCCCC(=O)*; γGlu = O=C(O)[C@H](CCC(=O)[*:2])N[*:1]; AEEA = NCCOCCOCC(=O)O
B1: N^ε1-[2-[2-[2-[[(4S)-4-carboxy-4-(19-carboxynonadecanoylamino)butanoyl]amino]ethoxy]ethoxy]acetyl]-[Arg17,Pro21,Pro27,His34]-h-amylin (peptide)
peptide: K([AEEA-γGlu-C20 diacid])CNTATCATQRLANFLRHSSPNFGAIPSSTNVGHNTY-NH2
modifications: disulfide 2-7; N-terminus assumed
SMILES: CC[C@H](C)[C@H](NC(=O)[C@H](C)NC(=O)CNC(=O)[C@H](Cc1ccccc1)NC(=O)[C@H](CC(N)=O)NC(=O)[C@@H]1CCCN1C(=O)[C@H](CO)NC(=O)[C@H](CO)NC(=O)[C@H](Cc1c[nH]cn1)NC(=O)[C@H](CCCNC(=N)N)NC(=O)[C@H](CC(C)C)NC(=O)[C@H](Cc1ccccc1)NC(=O)[C@H](CC(N)=O)NC(=O)[C@H](C)NC(=O)[C@H](CC(C)C)NC(=O)[C@H](CCCNC(=N)N)NC(=O)[C@H](CCC(N)=O)NC(=O)[C@@H](NC(=O)[C@H](C)NC(=O)[C@@H]1CSSC[C@H](NC(=O)[C@@H](N)CCCCNC(=O)COCCOCCNC(=O)CC[C@H](NC(=O)CCCCCCCCCCCCCCCCCCC(=O)O)C(=O)O)C(=O)N[C@@H](CC(N)=O)C(=O)N[C@@H]([C@@H](C)O)C(=O)N[C@@H](C)C(=O)N[C@@H]([C@@H](C)O)C(=O)N1)[C@@H](C)O)C(=O)N1CCC[C@H]1C(=O)N[C@@H](CO)C(=O)N[C@@H](CO)C(=O)N[C@H](C(=O)N[C@@H](CC(N)=O)C(=O)N[C@H](C(=O)NCC(=O)N[C@@H](Cc1c[nH]cn1)C(=O)N[C@@H](CC(N)=O)C(=O)N[C@H](C(=O)N[C@@H](Cc1ccc(O)cc1)C(N)=O)[C@@H](C)O)C(C)C)[C@@H](C)O
notes: also called compound 76
B2: N^ε1-[2-[2-[2-[[(4S)-4-carboxy-4-(19-carboxynonadecanoylamino)butanoyl]amino]ethoxy]ethoxy]acetyl]-[Arg17,Pro21,Pro27,Pro34,His35]-h-amylin (peptide)
peptide: K([AEEA-γGlu-C20 diacid])CNTATCATQRLANFLRHSSPNFGAIPSSTNVGPHTY-NH2
modifications: disulfide 2-7; N-terminus assumed
SMILES: CC[C@H](C)[C@H](NC(=O)[C@H](C)NC(=O)CNC(=O)[C@H](Cc1ccccc1)NC(=O)[C@H](CC(N)=O)NC(=O)[C@@H]1CCCN1C(=O)[C@H](CO)NC(=O)[C@H](CO)NC(=O)[C@H](Cc1c[nH]cn1)NC(=O)[C@H](CCCNC(=N)N)NC(=O)[C@H](CC(C)C)NC(=O)[C@H](Cc1ccccc1)NC(=O)[C@H](CC(N)=O)NC(=O)[C@H](C)NC(=O)[C@H](CC(C)C)NC(=O)[C@H](CCCNC(=N)N)NC(=O)[C@H](CCC(N)=O)NC(=O)[C@@H](NC(=O)[C@H](C)NC(=O)[C@@H]1CSSC[C@H](NC(=O)[C@@H](N)CCCCNC(=O)COCCOCCNC(=O)CC[C@H](NC(=O)CCCCCCCCCCCCCCCCCCC(=O)O)C(=O)O)C(=O)N[C@@H](CC(N)=O)C(=O)N[C@@H]([C@@H](C)O)C(=O)N[C@@H](C)C(=O)N[C@@H]([C@@H](C)O)C(=O)N1)[C@@H](C)O)C(=O)N1CCC[C@H]1C(=O)N[C@@H](CO)C(=O)N[C@@H](CO)C(=O)N[C@H](C(=O)N[C@@H](CC(N)=O)C(=O)N[C@H](C(=O)NCC(=O)N1CCC[C@H]1C(=O)N[C@@H](Cc1c[nH]cn1)C(=O)N[C@H](C(=O)N[C@@H](Cc1ccc(O)cc1)C(N)=O)[C@@H](C)O)C(C)C)[C@@H](C)O
notes: also called compound 58
B3: N^ε1-[2-[2-[2-[[(4S)-4-carboxy-4-(19-carboxynonadecanoylamino)butanoyl]amino]ethoxy]ethoxy]acetyl]-[Arg17,Pro21,Pro27,Pro31,His35]-h-amylin (peptide)
peptide: K([AEEA-γGlu-C20 diacid])CNTATCATQRLANFLRHSSPNFGAIPSSTPVGSHTY-NH2
modifications: disulfide 2-7; N-terminus assumed
SMILES: CC[C@H](C)[C@H](NC(=O)[C@H](C)NC(=O)CNC(=O)[C@H](Cc1ccccc1)NC(=O)[C@H](CC(N)=O)NC(=O)[C@@H]1CCCN1C(=O)[C@H](CO)NC(=O)[C@H](CO)NC(=O)[C@H](Cc1c[nH]cn1)NC(=O)[C@H](CCCNC(=N)N)NC(=O)[C@H](CC(C)C)NC(=O)[C@H](Cc1ccccc1)NC(=O)[C@H](CC(N)=O)NC(=O)[C@H](C)NC(=O)[C@H](CC(C)C)NC(=O)[C@H](CCCNC(=N)N)NC(=O)[C@H](CCC(N)=O)NC(=O)[C@@H](NC(=O)[C@H](C)NC(=O)[C@@H]1CSSC[C@H](NC(=O)[C@@H](N)CCCCNC(=O)COCCOCCNC(=O)CC[C@H](NC(=O)CCCCCCCCCCCCCCCCCCC(=O)O)C(=O)O)C(=O)N[C@@H](CC(N)=O)C(=O)N[C@@H]([C@@H](C)O)C(=O)N[C@@H](C)C(=O)N[C@@H]([C@@H](C)O)C(=O)N1)[C@@H](C)O)C(=O)N1CCC[C@H]1C(=O)N[C@@H](CO)C(=O)N[C@@H](CO)C(=O)N[C@H](C(=O)N1CCC[C@H]1C(=O)N[C@H](C(=O)NCC(=O)N[C@@H](CO)C(=O)N[C@@H](Cc1c[nH]cn1)C(=O)N[C@H](C(=O)N[C@@H](Cc1ccc(O)cc1)C(N)=O)[C@@H](C)O)C(C)C)[C@@H](C)O
notes: also called compound 57
B4: N^ε1-[2-[2-[2-[[(4S)-4-carboxy-4-(19-carboxynonadecanoylamino)butanoyl]amino]ethoxy]ethoxy]acetyl]-[Arg17,Pro21,Pro27,Pro29,Pro34]-h-amylin (peptide)
peptide: K([AEEA-γGlu-C20 diacid])CNTATCATQRLANFLRHSSPNFGAIPSPTNVGPNTY-NH2
modifications: disulfide 2-7; N-terminus assumed
SMILES: CC[C@H](C)[C@H](NC(=O)[C@H](C)NC(=O)CNC(=O)[C@H](Cc1ccccc1)NC(=O)[C@H](CC(N)=O)NC(=O)[C@@H]1CCCN1C(=O)[C@H](CO)NC(=O)[C@H](CO)NC(=O)[C@H](Cc1c[nH]cn1)NC(=O)[C@H](CCCNC(=N)N)NC(=O)[C@H](CC(C)C)NC(=O)[C@H](Cc1ccccc1)NC(=O)[C@H](CC(N)=O)NC(=O)[C@H](C)NC(=O)[C@H](CC(C)C)NC(=O)[C@H](CCCNC(=N)N)NC(=O)[C@H](CCC(N)=O)NC(=O)[C@@H](NC(=O)[C@H](C)NC(=O)[C@@H]1CSSC[C@H](NC(=O)[C@@H](N)CCCCNC(=O)COCCOCCNC(=O)CC[C@H](NC(=O)CCCCCCCCCCCCCCCCCCC(=O)O)C(=O)O)C(=O)N[C@@H](CC(N)=O)C(=O)N[C@@H]([C@@H](C)O)C(=O)N[C@@H](C)C(=O)N[C@@H]([C@@H](C)O)C(=O)N1)[C@@H](C)O)C(=O)N1CCC[C@H]1C(=O)N[C@@H](CO)C(=O)N1CCC[C@H]1C(=O)N[C@H](C(=O)N[C@@H](CC(N)=O)C(=O)N[C@H](C(=O)NCC(=O)N1CCC[C@H]1C(=O)N[C@@H](CC(N)=O)C(=O)N[C@H](C(=O)N[C@@H](Cc1ccc(O)cc1)C(N)=O)[C@@H](C)O)C(C)C)[C@@H](C)O
notes: also called compound 56
B5: N^ε1-[2-[2-[2-[[(4S)-4-carboxy-4-(19-carboxynonadecanoylamino)butanoyl]amino]ethoxy]ethoxy]acetyl]-[Arg17,Pro21,Pro27,Pro28,Pro34]-h-amylin (peptide)
peptide: K([AEEA-γGlu-C20 diacid])CNTATCATQRLANFLRHSSPNFGAIPPSTNVGPNTY-NH2
modifications: disulfide 2-7; N-terminus assumed
SMILES: CC[C@H](C)[C@H](NC(=O)[C@H](C)NC(=O)CNC(=O)[C@H](Cc1ccccc1)NC(=O)[C@H](CC(N)=O)NC(=O)[C@@H]1CCCN1C(=O)[C@H](CO)NC(=O)[C@H](CO)NC(=O)[C@H](Cc1c[nH]cn1)NC(=O)[C@H](CCCNC(=N)N)NC(=O)[C@H](CC(C)C)NC(=O)[C@H](Cc1ccccc1)NC(=O)[C@H](CC(N)=O)NC(=O)[C@H](C)NC(=O)[C@H](CC(C)C)NC(=O)[C@H](CCCNC(=N)N)NC(=O)[C@H](CCC(N)=O)NC(=O)[C@@H](NC(=O)[C@H](C)NC(=O)[C@@H]1CSSC[C@H](NC(=O)[C@@H](N)CCCCNC(=O)COCCOCCNC(=O)CC[C@H](NC(=O)CCCCCCCCCCCCCCCCCCC(=O)O)C(=O)O)C(=O)N[C@@H](CC(N)=O)C(=O)N[C@@H]([C@@H](C)O)C(=O)N[C@@H](C)C(=O)N[C@@H]([C@@H](C)O)C(=O)N1)[C@@H](C)O)C(=O)N1CCC[C@H]1C(=O)N1CCC[C@H]1C(=O)N[C@@H](CO)C(=O)N[C@H](C(=O)N[C@@H](CC(N)=O)C(=O)N[C@H](C(=O)NCC(=O)N1CCC[C@H]1C(=O)N[C@@H](CC(N)=O)C(=O)N[C@H](C(=O)N[C@@H](Cc1ccc(O)cc1)C(N)=O)[C@@H](C)O)C(C)C)[C@@H](C)O
notes: also called compound 55

These binders were tested against T1, human calcitonin receptor (human, UniProt P30988 25-474) (assay: cell-based or functional assay).
T1 sequence (looked up): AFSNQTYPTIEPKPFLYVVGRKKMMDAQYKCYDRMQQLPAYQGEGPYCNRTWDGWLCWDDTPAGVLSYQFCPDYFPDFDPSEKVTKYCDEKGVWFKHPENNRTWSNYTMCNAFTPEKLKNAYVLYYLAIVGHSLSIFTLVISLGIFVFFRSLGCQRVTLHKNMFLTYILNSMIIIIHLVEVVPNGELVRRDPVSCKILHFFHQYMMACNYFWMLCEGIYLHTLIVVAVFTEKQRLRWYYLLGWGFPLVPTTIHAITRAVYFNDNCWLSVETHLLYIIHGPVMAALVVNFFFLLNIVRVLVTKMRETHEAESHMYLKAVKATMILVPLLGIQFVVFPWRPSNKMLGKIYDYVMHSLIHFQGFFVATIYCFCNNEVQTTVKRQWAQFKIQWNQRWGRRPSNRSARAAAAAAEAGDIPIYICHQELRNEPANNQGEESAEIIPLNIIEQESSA
With B1 the “hCTR funct. EC50” value was 7.37 nM. In the case of B2, the “hCTR funct. EC50” value is reported as 1.03 nM. B3 was tested, and the “hCTR funct. EC50” value was 3.12 nM. In the case of B4, the “hCTR funct. EC50” value is reported as 0.506 nM. In the case of B5, the “hCTR funct. EC50” value is reported as 0.731 nM.

What follows are binders tested against T2, human amylin receptor (amylin 3(a) receptor: human calcitonin receptor co-expressed with RAMP-3) (human, UniProt P30988 25-474; O60896 24-148, limits assumed) (assay: cell-based or functional assay).
T2 sequence (looked up) 1: T1 sequence (looked up)
T2 sequence (looked up) 2: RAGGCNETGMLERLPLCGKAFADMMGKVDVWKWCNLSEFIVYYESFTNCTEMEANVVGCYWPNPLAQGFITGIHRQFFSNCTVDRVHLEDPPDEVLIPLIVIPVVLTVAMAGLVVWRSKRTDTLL
B1 was tested, and the “hAmylin-R funct. EC50” value was 0.297 nM. B2 was tested, and the “hAmylin-R funct. EC50” value was 0.047 nM. For B3, the “hAmylin-R funct. EC50” value was 0.089 nM. With B4 the “hAmylin-R funct. EC50” value was 0.102 nM. B5 was tested, and the “hAmylin-R funct. EC50” value was 0.068 nM.
